From publication PMC6391409, “A role for Vibrio vulnificus PecS during hypoxia” (Scientific Reports, 2019)
Like-named read-outs stand apart in the source and are kept apart here.

Columns and labels:
PecS (VvPecS) [1] = target: T1, PecS (VvPecS) (Vibrio vulnificus, UniProt A0A3Q0KXQ7); assay: EMSA: attenuation of purified VvPecS binding to pecS-pecM intergenic DNA (IC50 […]); supported by SYPRO Orange thermal shift (Tm […] to […] °C)
T1 construct: gene VV2_0325; His6-tagged VvPecS (BJE04_RS19600; old locus tag VVA0819), dimer

PecS (VvPecS) [2] = target: T1, PecS (VvPecS); assay: as above; remark: listed apart in the source
[3] = system: VvPecS (PecS) (Vibrio vulnificus YJ016); assay: EMSA; conditions: EMSA: 0.5 M Tris pH 8.0, 100 mM NaCl, 6% glycerol, 25 uM EDTA, 0.12% Brij-58, 50 ug BSA, 25 C, 20 min; footprint: 20 mM Tris pH 8.0, 50 mM NaCl, 5 mM MgCl2 …
[4] = system: VvPecS (PecS) (Vibrio vulnificus YJ016); assay: EMSA; conditions: EMSA: 0.5 M Tris pH 8.0, 100 mM NaCl, 6% glycerol, 25 uM EDTA, 0.12% Brij-58, 50 ug BSA, 25 C, 20 min; footprint: 20 mM Tris pH 8.0, 50 mM NaCl, 5 mM MgCl2 …; remark: listed apart in the source

T1 sequence (A0A3Q0KXQ7 entry or part of it): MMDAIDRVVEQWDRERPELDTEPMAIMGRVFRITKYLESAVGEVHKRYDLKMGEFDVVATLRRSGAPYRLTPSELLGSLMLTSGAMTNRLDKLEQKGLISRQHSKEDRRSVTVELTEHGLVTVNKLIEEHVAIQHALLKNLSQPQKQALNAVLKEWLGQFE

## O=c1[nH]c(=O)c2[nH]c(=O)[nH]c2[nH]1 [urate]
PecS (VvPecS) [1]
  Ki: 226 ± 29 µM

## O=c1[nH]c(=O)c2[nH]cnc2[nH]1 [xanthine]
PecS (VvPecS) [2]
  Ki: 60 ± 5 µM

## iNR (nsrR-nod intergenic DNA)
[3]
  Kd: 0.218 µM

## iSM (pecS-pecM intergenic DNA)
[3]
  IC50: 366 µM
  Kd: 0.0003 µM
[4]
  IC50: 1500 µM
